From the RNAGym collection of RNA variant scans (doi:10.1073/pnas.2313332121)

B1: TPR t1 (parent)
chain: GACCAAUCUGCCCUCAGAGCUCGAGAACAUCUUCGGAUGCAGAGGAGGCAGGCUUCGGUGGCGCGAUAGCGCCAACGUCCUCAACCUCCAAUGCAUCCCACCACAUGAUGAUGCCUGAAGAGCCUUGGUUUUUUG

Variants of: B1
Test: polymerase ribozyme fitness, log enrichment relative to wild type (log ratio); higher = more active; in vitro selection for triplet polymerase activity
How it was run: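 Genotype fitness is the logarithm of its enrichment divided by wild-type enrichment, using inverse-variance-weighted averages of replicates. That logarithm is base 2. Enrichment was measured by Illumina sequencing of input and output libraries from one triplicate in vitro selection round, with frozen incubation at −7 °C, on PCR-built, transcribed mutant libraries of each subunit of a heterodimeric triplet polymerase ribozyme, retaining genotypes with ≥10 input reads and ≥1 read per output.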

| Variant | polymerase ribozyme fitness (log ratio) |
| --- | --- |
| G45A C70A | -1.89 |
| C12U G42A G61A G110A | -4.38 |
| C31G C80G A100U C101G A103U G120C | -7.23 |
| C11U G45C C88A | -0.484 |
| U9G G65C A121U | -4.76 |
| C88A G107U | -4.63 |
| C11G C94U U96A | -0.725 |
| G52C G69U | -0.241 |
| A2G G120C | 1.19 |
| C11A A50U | -2.48 |
| G39A C62U G122A | -1.13 |
| C88A A111C | 0.245 |
| C53U U131G | -0.948 |
| C20A G45U A100U | -5.17 |
| C8G C34U C53G A90U G120A | -5.88 |
| C8A U14C G39U C102G G117A | -6.22 |
| C11U C72U | -0.485 |
| C8U A83U C85U C123G C124G | 2.01 |
| G39A G47U G48A C70U C101A | -5.46 |
| C73U G77A G120A | 0.241 |
| C3G C8G A43U C72U A90C | -2.6 |
| A18G C34G C70A U109A G128A | -5.92 |
| U32C G69A C76G G77C | -4.8 |
| G19U C70G | -5.52 |

| Variant | polymerase ribozyme fitness (log ratio) |
| --- | --- |
| C20U A46G C94U G107A U109G G120A | -5.88 |
| U96A G120U G128U | -1.74 |
| G57C C94A C97U A121U G122U | -1.21 |
| G36U G39C | -1.56 |
| C64U G113U | -2.54 |
| C28G C72U | -3.07 |
| C12U A26U C34G A50U C79U A83C C85G G110A A111C | -7.36 |
| G44U G63U C115G | -3.72 |
| C85G C88A C101A | -2.28 |
| C8A A50C C97G | -4.72 |
| C11U U32C C97G | -4.82 |
| U7A C28G | -2.71 |
| G36C G57U A90C U106A | -3.67 |
| C56G G63C | -2.95 |
| U38G G77A U78C U125A | -1.89 |
| C4U C115A | -1.18 |
| G51C G69U | -2.95 |
| C8G A16U C94A | -0.757 |
| G10U C34G G65U A66C C123U U125A G128U | -7.34 |
| A16U A83C G120U C123A G127C U131A | -1.95 |
| G48A G51U | -2.61 |
| G60U G93A A105C | -3.53 |
| U9A A46U A74C C88G | -2.48 |
| G48U C49A C73A C115U U133C | -1.19 |

| Variant | polymerase ribozyme fitness (log ratio) |
| --- | --- |
| C13U G120C C124U | 1.91 |
| G51A G61U | -2.94 |
| C79U A84G | -0.834 |
| C70U C88G | -1.63 |
| A105U G127C | -2.7 |
| U54G G122A G128C | -2.84 |
| U38A G60A C79U | -1.22 |
| C86G G113C | -2.62 |
| C8U G10A A95C U130G | -1.3 |
| C13G G63C U87C | -3.11 |
| A6U G51C A74U G113A C123G | -4.2 |
| C20A A74G | -3.04 |
| G45A G69A U87A U125A | -3.37 |
| C34A G61U | -3.25 |
| C49A C53U C101A | -1.38 |
| A6C G47C G71U | -2.53 |
| A6U G48U C72A | 0.271 |
| C28U G47U G93A | -5.35 |
| A41C G128C | -3.34 |
| C72U U87G C104A | -0.492 |
| U9C A119U C123U | 2.07 |
| C13U G71U C79G U81A | -3.02 |
| U54A C62A G63A C88A | -3.95 |
| C70U U81A | -3.3 |

| Variant | polymerase ribozyme fitness (log ratio) |
| --- | --- |
| G69C A119G | -0.227 |
| A2U U54A | -2.36 |
| U92C G120U G127A | -0.833 |
| A46C C79A G120A | -1.25 |
| C13U C124A | 1.91 |
| A27G C70U | -2.05 |
| C102A U125C | -4.05 |
| A18G C49A C79U G120C G128U | -5.04 |
| C3A U133A | -1.44 |
| G71A C85A | -2.44 |
| G122A G128U G135U | -2.49 |
| A6U G48U C53A | -0.649 |
| C72U G113A U126A | -2.61 |
| U38A G42U U59A C88G A95U C114A | -4.56 |
| C3A U32C G69A G120A | -3.63 |
| C20G C89G C98A G120C | -2.55 |
| U7C G10A U14A C53G C56G A84U G117U | -6.36 |
| G63A U116G | -3.24 |
| C72U G77U A100C A118U U129C | -2.77 |
| G60C G120A | 0.168 |
| A5G A18G G44C G48C U55C U59G G117U | -5.35 |
| A5U C49G C53A G71U | -0.914 |
| U9C C73U C85U G120C | 1.44 |
| C49A G60U | 0.254 |

| Variant | polymerase ribozyme fitness (log ratio) |
| --- | --- |
| C4G U9G G10C | -0.357 |
| U21A G35U A74U A111U | -6.43 |
| C12A C13U G71A G93A | -0.733 |
| G117A G127C | -1.7 |
| C22A C79U U87A | -4.8 |
| A6U A46C C49G C82G C89U | -2.2 |
| U38A C94G | -2.2 |
| A5C U9A C13U A74C G110C C123A | -5.77 |
| C4A G63U A119G | -0.807 |
| C13U G36C A43U U112G G127U G128A | -5.23 |
| G35A G45A | -4.16 |
| C8G A50U G60U C123A G128U U130A | -0.561 |
| A37C C53U | -0.73 |
| A46G C53G A111G | 1.36 |
| C56A U78G C86A G120U | -0.426 |
| G42U C115G | -1.8 |
| C8A U38A G42U G45A G61U | -1.89 |
| G36A G52C C70G | -5.49 |
| C12U C56A A91U A121C | -0.738 |
| G19C G42U G45C C72A C79A C82G | -3.62 |
| G122U C124U | 0.953 |
| G44U C56A G127C | -2.27 |
| G51C G57C C73A G77U U78G | -3.02 |
| C4G C8U A18U A43U U81A | -2.85 |

| Variant | polymerase ribozyme fitness (log ratio) |
| --- | --- |
| C70G C85U | -3.79 |
| C12A G36U C64U A83G G113A | -4.18 |
| U7A G42U G58C G71U C88U G113A | -2.19 |
| G51A C56G | -2.03 |
| U9A G113A | -0.103 |
| C97U A105C | -4.58 |
| C56A A111C | -0.279 |
| A50C G120C | 0.605 |
| A50G A84C C114G | -2.83 |
| G47A C64U | -2.13 |
| C8G C28G C64U U116G A121G | -2.9 |
| U21C G45C C56U U109A A111U C124G | -4.35 |
| G52C U59G A118G | -0.37 |
| G61A G93C C97A C104A | -6.04 |
| A37U C82U G128C U130C | -2.33 |
| C13U U21G | 0.0383 |
| A27G A121G | 1.32 |
| U14G U112A | -0.444 |
| A2U A37U G42C G93C G120A C123G U130A | -6.65 |
| A6C A18U A50C G77U U87A | -3.65 |
| C11U C22U U55C C56U A66U | -6.04 |
| C11A C72G C79A C85A A121U | -1.86 |
| A5U A91U | -3.29 |
| C56U C104G C115A | -4.93 |

| Variant | polymerase ribozyme fitness (log ratio) |
| --- | --- |
| C94U C102G | -6.09 |
| C40U G45U | -2.01 |
| A6U A105C U116C | -6.02 |
| A16U C31U | -4.77 |
| C13U A24G C70A C73A C104U A111U | -6.33 |
| U33G G120U | -5.27 |
| G71C G93A C102A | -5.09 |
| G60A A118C | -3.63 |
| C20U A111C | -1.7 |
| G52U A105G A121C | -2.06 |
| A75G A121G | 1.42 |
| A37U A66C C76U | -2.83 |
| G39C C40U G69A | -4.36 |
| U9A G39A | 0.185 |
| G23A G69U A90U C124U | -5.33 |
| C40U G57A C85A U112A G122C C123A | -1.77 |
| C11A A74U | -2.52 |
| C34G C86U | -6.51 |
| A27U G47A U59A U106G U133G | -4.03 |
| U9C A37U G63A C80U C82G C85G | -2.21 |
| U9G U14A A46U A68G | -4.4 |
| G52C G93C | -1.82 |
| G47C C82U C114A | -2.65 |
